Where two headings read alike, the source gives them in different places.

Data set [1] addresses LRX11 (insect-cell protein, limits not stated for the experiment) (Arabidopsis thaliana). Put plainly: SEC-MALS. Background: In gel filtration, larger molecules generally elute earlier.
Data set [2] deals with LRX8 (insect-cell protein, limits not stated for the experiment) (Arabidopsis thaliana). Put plainly: SEC-MALS.
The target of data set [3] is LLG2 ectodomain (residues 24 to 135) (Arabidopsis thaliana) (UniProt Q6NLF4). Put plainly: ITC.
LLG2 ectodomain (residues 24 to 135) (Arabidopsis thaliana), sequence (Q6NLF4 24-135): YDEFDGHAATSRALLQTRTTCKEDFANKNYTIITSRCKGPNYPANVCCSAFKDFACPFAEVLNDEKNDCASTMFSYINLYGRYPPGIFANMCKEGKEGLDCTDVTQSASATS
For data set [4], the target named is LLG3 ectodomain (residues 24 to 137) (Arabidopsis thaliana) (UniProt Q9M0I0). The experiment in a line: ITC. Background: In ITC the heat of successive injections is recorded.
LLG3 ectodomain (residues 24 to 137) (Arabidopsis thaliana), sequence (Q9M0I0 24-137): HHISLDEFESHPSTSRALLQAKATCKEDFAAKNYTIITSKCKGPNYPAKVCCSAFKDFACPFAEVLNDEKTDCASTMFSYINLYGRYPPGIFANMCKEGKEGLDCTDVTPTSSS
Data set [5] concerns the target LRX8_(49–400) (Arabidopsis thaliana). The experiment in a line: ITC.
Data set [6] deals with biotinylated LRX8 (49 to 400) fused to a noncleavable Avi-tag (Arabidopsis thaliana). Put plainly: grating-coupled interferometry.
In data set [7] the target is LLG3 ectodomain (residues 24 to 137) (Arabidopsis thaliana) (UniProt Q9M0I0). Put plainly: ITC. The source holds these as a separate data set.
Data set [8] addresses LRX8_(49–400) (Arabidopsis thaliana). Put plainly: ITC. This is another data set of the same source.
Data set [9] deals with LRX8_(C157A.Y87A.A133F) (Arabidopsis thaliana). Put plainly: ITC.
The test system of data set [10] is wild-type pollen tubes. Put plainly: Pollen tube growth assay after peptide addition. The format is cell-based, Arabidopsis thaliana. The note with it: peptide at 50 and 100 nM.
Data set [11] concerns the molecule itself. The experiment in a line: SEC-MALS.
Data set [12] addresses LRX8_(49–400) (Arabidopsis thaliana). The experiment in a line: ITC. The source holds these as a separate data set.

The stoichiometry N is a count of units in the complex or per binding partner. “LRX11 (insect-cell protein, limits not stated for the experiment) (domain or fragment)” gave a stoichiometry N in [1] of 2.
By Kd is commonly meant the concentration at which binding is half-saturated. A lower Kd goes with tighter binding. Broadly, the kon is the rate constant with which the complex forms. A lower kon goes with slower complex formation. Take “RALF4_(folded) (RALF4 residues 58 to 110, isolated from insect cells) (peptide)”: the stoichiometry N in [1] and in data set [2] was 1 each time. For the same molecule, the Kd in [3] was 500 nM; in [4], 1500 nM; in [5] it was 100 nM; in data set [7], 11000 nM; in [8], 3.5 nM; in [9], 2.5 nM. This molecule also came in with a kon in data set [6] of 400000 M⁻¹ s⁻¹.
Take “PTYNSCRRKCKRDRGYAARRYKRYRYVNADIKRNHSGYPCRICSRLYGRN [RALF4scrambled]”: the “effect on pollen tube growth, in words” value in data set [10] is listed as “no effect”.

B1: LRX8 (insect-cell protein, limits not stated for the experiment) (domain or fragment)
chain: ENGDLPDDIEYEVDLDLKFANNRLKRAYIALQAWKKAFYSDPFNTAANWVGPDVCSYKGVFCAPALDDPSVLVVAGIDLNHADIAGYLPPELGLLTDVALFHVNSNRFCGVIPKSLSKLTLMYEFDVSNNRFVGPFPTVALSWPSLKFLDIRYNDFEGKLPPEIFDKDLDAIFLNNNRFESTIPETIGKSTASVVTFAHNKFSGCIPKTIGQMKNLNEIVFIGNNLSGCLPNEIGSLNNVTVFDASSNGFVGSLPSTLSGLANVEQMDFSYNKFTGFVTDNICKLPKLSNFTFSYNFFNGEAQSCVPGSSQEKQFDDTSNCLQNRPNQKSAKECLPVVSRPVDCSKDKCAGG
modifications: N-glycosylated
Regarding B1, the “stoichiometry N” value in [11] is 2.
RRYIGYDALKKNNVPCSRRGRSYYDAKKRRRNNPYRRGCSAITHAYRYAR [RALF4_(C86A.C105A)] registered a fold reduction of affinity (against RALF4 (folded)) in data set [12] of 10 fold.
In [12], RRYIGYDALKKNNVPCSRRGRSAADCKKRRRNNPYRRGCSAITHCYRYAR [RALF4_(Y83A.Y84A)] had a Kd of 1400 nM.
In data set [12], RRYIGYDALKKNNVPCSRRGRSYYDCKKRRRNNPYRRGCSAITHCYRYAR [RALF4_(synthetic)] came in with a Kd of 60 nM.
With RRYIGYDALKKNNVPASRRGRSYYDAKKRRRNNPYRRGASAITHAYRYAR [RALF4_(C76A.C86A.C99A.C105A)], the fold reduction of affinity (against RALF4 (folded)) in [12] amounted to 10 fold.

The values are drawn from publication PMC7132299 (Proceedings of the National Academy of Sciences of the …, 2020).
